For this experiment, the target named is X18 gp120. The experiment is described as follows: SPR. A general note: Surface plasmon resonance follows binding to a sensor surface in real time, without labels.

B1: bNAb F6 Fab (for SPR) (Fab, V domains shown)
VH: QVQLQQWGTGLLKPSETLSLTCAVYGVSLRGYYWTWIRQSPKKGLEWIGEIDEIGRTKYSQSLRSRATLSIDTSKKQFSLRLTSVTAADMATYYCARWRLMMVDEVTRHGMDVWSQGTMVTVSS
VL: DIVMTQSPLSLSVAPGEAASISCRSTQSLLNRNGDNYLEWYLRRPGRSPQLLIYLGSERALGVPDRFSGSGSGRDFTLKISRVEAQDVGTYYCLQTRQGAFTFGQGTKLEIK
As usually defined, the Kd is the equilibrium constant for the complex coming apart. A low value points to higher affinity. For B1, the affinity, expressed as Kd, was 32.5 nM.
